Assay results published in patent publication US8242240B2, “Anti-inflammatory compounds and uses thereof” (Yale University, priority 2000, dated 2012).

Biological target: T1, IKKα-NEMO interaction (Homo sapiens, UniProt Q9Y6K9)
T1 construct: bacterially expressed version of full length NEMO fused at its NH2-terminus to glutathione S-transferase; made in house; host or cells: bacteria (GST-NEMO); in vitro transcription/translation (IKKα)
Assay: GST pull-down of IKKα by GST-NEMO in the presence of NBD peptide
Format: binding
Conditions: peptide 500 and 1000 μM
Description: (A) Sequences of the NBD wild type (SEQ ID NO:177) and scrambled control peptides (SEQ ID NO:178). The wild type peptide corresponds to residues 734 to 744 of IKKβ. (B) GST pull-down analysis was performed using GST-NEMO and in vitro transcribed and translated IKKα (upper panel) and IKKβ (middle panel) in the presence or absence of either vehicle (2% DMSO), scrambled or wild type NBD peptide (500 and 1000 μM of each peptide). […] (C) Densitometric analysis of autoradiograph bands obtained following GST pull-down of IKKa and IKKb using GST-NEMO in the presence of a range of concentrations of wild type NBD peptide. […] The data are presented as the pixel density as a percentage of control (no peptide) and represent means±sd (n=11). Analysis was performed using the NIH-Image software.

T1 sequence (Q9Y6K9 whole entry, the tested form may be a part): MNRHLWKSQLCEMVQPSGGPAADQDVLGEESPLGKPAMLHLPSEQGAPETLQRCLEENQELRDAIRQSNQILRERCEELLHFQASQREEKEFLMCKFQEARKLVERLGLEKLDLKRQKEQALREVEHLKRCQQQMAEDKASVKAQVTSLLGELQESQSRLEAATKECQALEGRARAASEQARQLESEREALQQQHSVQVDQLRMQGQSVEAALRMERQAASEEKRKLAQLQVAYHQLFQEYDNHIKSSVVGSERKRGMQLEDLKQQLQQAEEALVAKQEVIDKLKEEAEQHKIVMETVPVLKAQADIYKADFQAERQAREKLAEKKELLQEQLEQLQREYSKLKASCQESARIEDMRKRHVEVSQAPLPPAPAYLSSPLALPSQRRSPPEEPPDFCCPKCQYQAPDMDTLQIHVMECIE

interaction of IKKα with NEMO (GST pull-down): prevents
Substance: NBD wild type (SEQ ID NO:177): wild type peptide corresponding to residues 734 to 744 of IKKβ (FTALDWSWLQT; Description of Unknown: Unknown wildtype NBD peptide)
